Key:
VEGF-165 = VEGF-165 (human, UniProt P15692-4 27-191); test: single-molecule nanopore (carrier dimerization, biphasic Hill fit); apparent sandwich Kd; 200 pM carrier; Carriers (200 pM total) incubated with protein at 37 °C for 2 h; nanopore measurement in 100 mM KCl, 10 mM Tris-EDTA pH 8.0, -300 mV; conditions: protein: recombinant; chain copies: 2; 2 identical carriers per protein dimer; first 12 nt pair with carrier overhang
PDGF-BB = PDGF-BB (human, UniProt P01127 82-190); test: as above; conditions: protein: recombinant; chain copies: 2; 2 identical carriers per protein dimer; first 12 nt pair with carrier overhang
PDGF-BB, sequence (P01127 82-190): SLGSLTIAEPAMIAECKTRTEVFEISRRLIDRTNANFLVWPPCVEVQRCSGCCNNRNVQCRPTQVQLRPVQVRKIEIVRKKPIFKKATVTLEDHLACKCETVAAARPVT

human alpha-thrombin = human alpha-thrombin (human, UniProt P00734;P00734 328-363;364-622); test: single-molecule nanopore (carrier dimerization, biphasic Hill fit); apparent sandwich Kd; 100 pM of each carrier; hook effect at high thrombin; Carriers (200 pM total) incubated with protein at 37 °C for 2 h; nanopore measurement in 100 mM KCl, 10 mM Tris-EDTA pH 8.0, -300 mV

VEGF-165, sequence (P15692 other isoform, or with tags, fused parts or gaps): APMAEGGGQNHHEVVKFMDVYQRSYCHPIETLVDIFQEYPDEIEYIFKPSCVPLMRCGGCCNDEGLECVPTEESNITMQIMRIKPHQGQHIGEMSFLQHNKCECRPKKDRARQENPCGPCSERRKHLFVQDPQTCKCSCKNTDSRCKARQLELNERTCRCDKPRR

GGGCGGCGACCTTTTTTTTGTGGGGGTGGACGGGCCGGGTAGA (structured_DNA, 5' phosphate, ligated to carrier) [VEGF probe (V7t1) carrier]
Kd (VEGF-165): ~0.3 pM

B1: PDGF probe carrier (structured_DNA)
DNA: GGGCGGCGACCTTTTTTTCACAGGCTACGGCACGTAGAGCATCACCATGATCCTGTG
modifications: 5' phosphate, ligated to carrier
Kd (PDGF-BB): ~1.8 pM

B2: HD1 carrier + HD22 carrier (thrombin probes 1 and 2) (structured_DNA)
DNA 1: GGGCGGCGACCTTTTTTTGGTTGGTGTGGTTGG
DNA 2: GGGCGGCGACCTTTTTTTAGTCCGTGGTAGGGCAGGTTGGGGTGACT
modifications: 5' phosphate on probes, ligated to carrier
Kd (human alpha-thrombin): ~9.1 pM

Source: PMC12455474, “Single‐Molecule Protein Profiling Using Nanopores and Dimeric Aptamer‐Modified DNA Carriers”
